Source: patent US20210069342A1 (LEGOCHEM BIOSCIENCES, published 2021)

Legend:
[1] = molecular target: T1, recombinant human ROR1-His (Sino Biological, 13968-H08H) (human, UniProt Q01973 30-406); test: BLI (Octet), ROR1-His on Anti-Penta-His or AR2G biosensor, IgG 30 to 0.021 nM, 1:1 fit
T1 construct: extracellular domain; Bought protein; also called ROR1-HIS protein; not shown: His tag
Procedure: A 96-well black microplate (greiner bio one) was mounted on a biosensor tray case, and 200 10×KB or DW was added to each of 8 wells. Then Anti Penta His biosensors or 8 AR2G biosensors (ForteBio, USA) were inserted to hydrate for 10 minutes. 600 of the assay samples were diluted 2-fold or 3-fold to the appropriate assay concentrations, using 1×KB or 10×KB to 30 to 0.021 nM. To immobilize the antigen, recombinant human ROR1-His (Sino Biological, 13968-H08H) was diluted to 1 /ML with 10×KB or Sodium Acetate pH5 buffer. Immobilization was fixed at a threshold of 0.3 nm in the loading step. The association assay was carried out for 3 to 10 minutes, and the dissociation assay was carried out for 20 minutes. According to the Octet program template, the buffer was placed in a new 96-well black microplate according to order. As Baseline1, 200 10×KB or DW was placed. Then 200 each of 1 /mL of the antigen to be loaded, the ROR1-HIS protein, was added. As Baseline2, 200 10×KB or 1×KB was placed. Then to each well 30 to 0.021 nM of the diluted antibody and 200 each of 10×KB buffer or 1×KB corresponding to a reference blank was added. The temperature of the test plate was fixed at 30° C. After all of the samples were introduced, the equipment was started, and after the assay was completed, results were uploaded to the Octet Analysis 90 software, with KD values analyzed through 1:1 fitting. By obtaining KD values through the Octet assay method, it was confirmed that the anti-ROR1 antibody had strong binding potential to ROR1 antigen.

[2] = molecular target: T2, recombinant mouse ROR1 protein (Acrobiosystems, RO1-M5221) (mouse, UniProt Q9Z139 30-403); test: ELISA, wells coated with recombinant mouse ROR1 protein, IgG titrated, HRP anti-Fab detection, OD (450-650nm)
T2 construct: Bought protein; also called mouse ROR1 antigen
T2 sequence (Q9Z139 30-403 limits assumed): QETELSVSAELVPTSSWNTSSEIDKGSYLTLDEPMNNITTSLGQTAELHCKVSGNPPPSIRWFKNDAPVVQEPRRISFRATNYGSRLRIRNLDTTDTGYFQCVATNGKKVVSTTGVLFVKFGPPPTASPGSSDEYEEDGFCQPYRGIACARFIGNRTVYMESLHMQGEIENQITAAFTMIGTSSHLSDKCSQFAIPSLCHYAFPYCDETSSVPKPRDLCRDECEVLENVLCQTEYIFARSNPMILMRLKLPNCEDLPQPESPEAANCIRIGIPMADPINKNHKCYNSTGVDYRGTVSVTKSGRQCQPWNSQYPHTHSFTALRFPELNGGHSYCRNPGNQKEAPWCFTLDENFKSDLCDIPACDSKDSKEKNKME
Procedure: (§1) Anti-ROR1 antibody antigen binding affinity was assessed using an ELISA-based solution binding assay. Specifically, a 96-well microtiter plate (Nunc-Immuno Plates), NUNC) was coated for 16 hours at 4° C. with the ROR1 protein described below at a concentration of 1 in PBS solution, and non-specific binding sites were blocked for 2 hours with 3% BSA (bovine serum albumin). Here, the ROR1 protein used was, in the case of human ROR1, the ROR1-Fc or recombinant human ROR1-His (Sino Biological, 13968-H08H) of Embodiment 1. The ROR1-His used in ELISA, as stated in the above sentence, was a protein from the Sino Biological company (13968-H08H), and the ROR1-His of Embodiment 1 or recombinant mouse ROR1 protein was used (Acrobiosystems, RO1-M5221-100 )
(§2) Subsequently, the anti-ROR1 antibodies prepared in Embodiment 3 were added at the concentrations stated in FIG. 2 to a 96-well microtiter plate, and binding capacity was analyzed using ELISA as follows. Specifically, after incubating for 2 hours, the plate was washed 5 times with PBS containing 0.05% Tween 20, then HRP-conjugated Fab multiclonal antibody reagent (Perce, 31414) was diluted to 1:10,000 and placed in the washed microtiter plate. After reacting for 1 hour at 37° C., the ROR1 antibodies bonded to the plate were detected. After the reaction, color development was performed using TMB (Tetramethylbenzidine, Sigma, T0440). The enzymatic reaction was stopped using 0.5 mol/L sulfuric acid, and absorbance at 450 nm and 650 nm was measured (450 nm-650 nm) using a micro plate reader (Molecular Device)

[3] = molecular target: T3, human ROR2 over-expressed on CHO cells (CHO-human ROR2) (human, UniProt Q01974 34-943); test: flow cytometry on CHO-S cells transiently over-expressing human ROR2, FITC anti-human Fc detection, MFI ratio to 2nd Ab alone
T3 construct: whole, on cells; Negative control; also called family protein human ROR2
T3 sequence (Q01974 34-943): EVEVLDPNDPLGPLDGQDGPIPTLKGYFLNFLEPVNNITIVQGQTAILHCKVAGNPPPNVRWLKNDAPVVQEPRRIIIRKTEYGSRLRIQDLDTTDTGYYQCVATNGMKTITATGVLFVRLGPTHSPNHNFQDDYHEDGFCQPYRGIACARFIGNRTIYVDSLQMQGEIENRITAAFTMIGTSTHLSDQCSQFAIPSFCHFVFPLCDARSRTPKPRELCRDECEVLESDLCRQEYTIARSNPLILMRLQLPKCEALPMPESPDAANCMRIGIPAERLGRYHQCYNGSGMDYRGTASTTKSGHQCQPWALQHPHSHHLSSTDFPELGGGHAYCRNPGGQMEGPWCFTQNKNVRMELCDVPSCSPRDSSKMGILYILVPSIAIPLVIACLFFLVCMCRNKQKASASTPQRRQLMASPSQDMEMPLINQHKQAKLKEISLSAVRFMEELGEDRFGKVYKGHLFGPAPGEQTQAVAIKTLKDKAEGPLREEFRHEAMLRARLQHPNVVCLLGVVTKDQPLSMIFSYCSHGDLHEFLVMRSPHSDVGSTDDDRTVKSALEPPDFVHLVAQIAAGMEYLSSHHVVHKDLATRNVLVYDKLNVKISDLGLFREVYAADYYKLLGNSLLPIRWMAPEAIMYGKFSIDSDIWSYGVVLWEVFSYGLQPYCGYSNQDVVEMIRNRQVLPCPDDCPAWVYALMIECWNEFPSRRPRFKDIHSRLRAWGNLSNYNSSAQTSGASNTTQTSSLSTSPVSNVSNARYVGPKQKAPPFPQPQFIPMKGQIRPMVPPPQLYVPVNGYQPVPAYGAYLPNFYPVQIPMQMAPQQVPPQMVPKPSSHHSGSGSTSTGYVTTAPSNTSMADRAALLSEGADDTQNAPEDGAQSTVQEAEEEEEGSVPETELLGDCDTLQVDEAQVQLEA
Excerpt: (§3) For this experiment, using cell lines (FIG. 5 and FIG. 7, respectively) transiently (CHO-human ROR1, CHO-human ROR2, CHO-mouse ROR1) or stably (MC38-human ROR1) transfected with ROR1 gene to achieve artificial over-expression of ROR1 protein, an ROR1-expressing cell line (JeKo-1, Mino) (FIG. 6), a non ROR1-expressing cell line (MCF7) (FIG. 6) and a FACSCalibur (BD Biosciences) device was used to measure the degree to which anti-ROR1 antibody and ROR1 were bound, as follows. […] JeKo-1, Mino, CHO-human ROR1, CHO-mouse ROR1 and MC38-human ROR1 are all cell lines which express human ROR1 or mouse ROR1.
(§4) Specifically, after dissociating each cell line and washing in PBS, the number of cells was counted and adjusted to 2×10⁵ cells/200 PBS. Then the respective ROR1 monoclonal antibodies prepared in Embodiment 3 were diluted 5 times from 10 /mL or 10 /mL, then reacted for 1 hour at 4° C. After the reaction, the cells were washed in PBS, then FITC-marked constant region (Fc) specific antibody (Goat anti-human IgG FITC conjugate, Fc specific, Sigma, F9512, concentration 20 mg/ml) was suspended in 2 /1×10⁵ cells/200 PBS and reacted for 1 hour at 4° C. As for identification of the degree of expression of the transiently over-expressed human ROR1, human ROR2 and mouse ROR1, a commercially available FACS analysis antibody (anti-ROR1: R&D Systems, FAB 2000G, anti-ROR2: R&D, FAB20641P) was used. After reacting the cells were washed in PBS and analyzed using a FACSCalibur device. The negative control (2nd Ab) was only treated with FITC-marked constant region (Fc) specific antibody. The shifted readings for the respective experimental groups treated with ROR1 monoclonal antibody were compared against the shifted reading for the control group (MFI Ratio: MFI of anti-ROR1/MFI of 2nd Ab).

[4] = molecular target: T1, recombinant human ROR1-His (Sino …); test: ELISA, wells coated with human ROR1 protein (sheet: 'human ROR1'; text: ROR1-Fc or ROR1-His), IgG titrated, HRP anti-Fab detection, OD (450-650nm)
Procedure: as §1, §2

[5] = molecular target: T4, human ROR1 expressed on the cell surface (human, UniProt Q01973 30-937); test: flow cytometry on MC38-human ROR1 cells, IgG titrated, FITC anti-human Fc detection, MFI ratio to 2nd Ab alone; log axis whose first tick is printed 0
T4 construct: whole, on cells; also called cell surface-expressed ROR1 antigen; ROR1 on JeKo-1, Mino, CHO-human ROR1, MC38-human ROR1 and other cancer cell lines
T4 sequence (Q01973 30-937): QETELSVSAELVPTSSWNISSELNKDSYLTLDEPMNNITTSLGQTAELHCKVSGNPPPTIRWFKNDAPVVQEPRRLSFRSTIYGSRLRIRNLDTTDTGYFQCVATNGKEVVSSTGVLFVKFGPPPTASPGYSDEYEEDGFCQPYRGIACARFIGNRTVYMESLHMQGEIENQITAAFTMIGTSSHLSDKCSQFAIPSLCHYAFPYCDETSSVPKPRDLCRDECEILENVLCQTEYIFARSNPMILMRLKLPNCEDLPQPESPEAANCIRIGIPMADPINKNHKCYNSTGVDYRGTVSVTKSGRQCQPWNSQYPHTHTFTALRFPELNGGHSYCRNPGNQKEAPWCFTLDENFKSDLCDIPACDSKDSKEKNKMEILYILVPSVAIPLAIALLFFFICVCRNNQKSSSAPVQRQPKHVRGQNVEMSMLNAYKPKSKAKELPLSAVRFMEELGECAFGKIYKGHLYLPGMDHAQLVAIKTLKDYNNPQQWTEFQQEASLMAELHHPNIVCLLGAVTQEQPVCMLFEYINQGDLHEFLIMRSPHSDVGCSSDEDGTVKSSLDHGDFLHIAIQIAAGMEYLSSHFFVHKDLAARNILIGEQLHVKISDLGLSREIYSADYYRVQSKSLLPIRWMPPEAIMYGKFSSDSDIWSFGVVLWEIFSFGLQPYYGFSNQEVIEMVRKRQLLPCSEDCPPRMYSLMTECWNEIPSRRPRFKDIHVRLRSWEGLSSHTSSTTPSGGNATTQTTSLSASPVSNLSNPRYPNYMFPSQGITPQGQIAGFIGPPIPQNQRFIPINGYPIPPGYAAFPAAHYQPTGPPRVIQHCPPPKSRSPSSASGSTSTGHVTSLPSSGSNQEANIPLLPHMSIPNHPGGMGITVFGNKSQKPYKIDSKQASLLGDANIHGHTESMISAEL
Excerpt: as §3, §4

[6] = molecular target: T1, recombinant human ROR1-His (Sino …); test: ELISA, wells coated with human ROR1 protein (sheet: 'human ROR1'; text: ROR1-Fc or ROR1-His), IgG titrated, OD(450nm-650nm); x axis 'conc(nM)' numbered -5 to 2 (log10)
Procedure: as §1, §2

[7] = molecular target: T5, mouse ROR1 over-expressed on CHO cells (CHO-mouse ROR1) (mouse, UniProt Q9Z139 30-937); test: flow cytometry on CHO-S cells transiently over-expressing mouse ROR1, FITC anti-human Fc detection, MFI ratio to 2nd Ab alone
T5 construct: whole, on cells; also called cell surface-expressed mouse ROR1
T5 sequence (Q9Z139 30-937): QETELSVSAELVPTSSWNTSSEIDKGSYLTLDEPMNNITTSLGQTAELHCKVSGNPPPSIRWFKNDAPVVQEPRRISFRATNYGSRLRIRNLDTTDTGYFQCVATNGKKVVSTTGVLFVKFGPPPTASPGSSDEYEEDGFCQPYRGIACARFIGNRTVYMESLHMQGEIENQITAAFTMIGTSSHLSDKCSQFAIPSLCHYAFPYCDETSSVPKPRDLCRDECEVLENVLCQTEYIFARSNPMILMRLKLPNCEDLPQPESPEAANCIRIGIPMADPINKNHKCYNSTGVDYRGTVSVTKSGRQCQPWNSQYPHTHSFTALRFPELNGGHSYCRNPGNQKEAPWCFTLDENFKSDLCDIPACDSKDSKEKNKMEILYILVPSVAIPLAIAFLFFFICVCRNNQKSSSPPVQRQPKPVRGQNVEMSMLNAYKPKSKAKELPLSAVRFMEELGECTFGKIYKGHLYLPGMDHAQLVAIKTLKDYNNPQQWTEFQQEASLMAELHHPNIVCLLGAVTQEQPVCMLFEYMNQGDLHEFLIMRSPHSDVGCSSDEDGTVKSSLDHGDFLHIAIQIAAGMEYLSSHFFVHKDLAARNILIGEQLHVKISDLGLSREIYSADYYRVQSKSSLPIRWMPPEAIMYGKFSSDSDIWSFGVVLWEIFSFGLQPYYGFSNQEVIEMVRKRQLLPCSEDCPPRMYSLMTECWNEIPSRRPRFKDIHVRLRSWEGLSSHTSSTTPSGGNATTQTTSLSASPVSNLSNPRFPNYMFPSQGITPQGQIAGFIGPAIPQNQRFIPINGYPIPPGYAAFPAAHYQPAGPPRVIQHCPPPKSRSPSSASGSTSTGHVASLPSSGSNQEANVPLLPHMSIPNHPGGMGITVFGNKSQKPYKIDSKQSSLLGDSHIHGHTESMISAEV
Excerpt: as §3
Specifically, after dissociating each cell line and washing in PBS, the number of cells was counted and adjusted to 2×10⁵ cells/200 PBS. Then the respective ROR1 monoclonal antibodies prepared in Embodiment 3 were diluted 5 times from 10 /mL or 10 /mL, then reacted for 1 hour at 4° C. […] After reacting the cells were washed in PBS and analyzed using a FACSCalibur device. […] The shifted readings for the respective experimental groups treated with ROR1 monoclonal antibody were compared against the shifted reading for the control group (MFI Ratio: MFI of anti-ROR1/MFI of 2nd Ab).

[8] = molecular target: T2, recombinant mouse ROR1 protein …; test: ELISA, IgG on coated mouse ROR1
Procedure: as §1
Subsequently, the anti-ROR1 antibodies prepared in Embodiment 3 were added at the concentrations stated in FIG. 2 to a 96-well microtiter plate, and binding capacity was analyzed using ELISA as follows. […] After reacting for 1 hour at 37° C., the ROR1 antibodies bonded to the plate were detected. […] The enzymatic reaction was stopped using 0.5 mol/L sulfuric acid, and absorbance at 450 nm and 650 nm was measured (450 nm-650 nm) using a micro plate reader (Molecular Device)

[9] = molecular target: T5, mouse ROR1 over-expressed on CHO cells …; test: flow cytometry, CHO-mouse ROR1 cells
Excerpt: as §3, §4

T1 sequence (Q01973 30-406): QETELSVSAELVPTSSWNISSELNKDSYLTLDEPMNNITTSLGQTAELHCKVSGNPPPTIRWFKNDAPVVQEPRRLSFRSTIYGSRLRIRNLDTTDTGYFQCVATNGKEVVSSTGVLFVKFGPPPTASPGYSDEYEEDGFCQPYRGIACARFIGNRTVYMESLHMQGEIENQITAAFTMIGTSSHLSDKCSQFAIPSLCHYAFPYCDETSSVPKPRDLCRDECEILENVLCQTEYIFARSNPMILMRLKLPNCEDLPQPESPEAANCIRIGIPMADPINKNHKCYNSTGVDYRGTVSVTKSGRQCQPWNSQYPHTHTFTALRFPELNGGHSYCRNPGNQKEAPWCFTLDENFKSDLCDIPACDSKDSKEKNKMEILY

| Binder | Kd [1] [nM] | koff [1] [s⁻¹] | kon [1] [M⁻¹ s⁻¹] | EC50 (read off the curve) [2] [nM] | binding result [3] | EC50 (read off the curve) [4] [nM] | EC50 (read off the curve) [5] [µg/mL] | EC50 (read off the curve) [6] [nM] | binding result [2] | binding result [7] | binding result [8] | binding result [9] |
| --- | --- | --- | --- | --- | --- | --- | --- | --- | --- | --- | --- | --- |
| anti-ROR1 IgG antibody A2F3 (antibody, V domains shown, Full IgG form (human IgG1 constant region, lambda light chain), expressed in CHO-S cells) VH: EVQLLESGGGLVQPGGSLRLSCAASGFTFSSYDMSWVRQAPGKGLEWVSWISPGGGSKYYADSVKGRFTISRDNSKNTLYLQMNSLRAEDTAVYYCARVNGRFDYWGQGTLVTVSS VL: QSVLTQPPSASGTPGQRVTISCSGSSSNIGNNNVSWYQQLPGTAPKLLIYADSHRPSGVPDRFSGSKSGTSASLAISGLRSEDEADYYCATWDYSLSGYVFGGGTKLTVLG | 0.024 | 3.31e-05 | 1.38e+06 | ~0.7 | no binding | ~0.6 | ~0.2 | – | – | – | – | – |
| anti-ROR1 IgG antibody A2F2 (antibody, V domains shown, Full IgG form (human IgG1 constant region, lambda light chain), expressed in CHO-S cells) VH: EVQLLESGGGLVQPGGSLRLSCAASGFTFSDYYMSWVRQAPGKGLEWVSSISPDGSNTYYADSVKGRFTISRDNSKNTLYLQMNSLRAEDTAVYYCAKNLRAFDYWGQGTLVTVSS VL: QSVLTQPPPASGTPGQRVTISCSGSSSNIGSNTVYWYQQLPGTAPKLLIYANSQRPSGVPDRFSGSKSGTSASLAISGLRSEDEADYYCGSWDYSLSGYVFGGGTKLTVLG | 0.0773 | 0.000119 | 1.53e+06 | ~0.3 | no binding | ~0.2 | ~0.1 | ~0.04 | – | – | – | – |
| anti-ROR1 IgG antibody D2B12 (antibody, V domains shown, Full IgG form (human IgG1 constant region, lambda light chain), expressed in CHO-S cells) VH: EVQLLESGGGLVQPGGSLRLSCAASGFTFSNYDMSWVRQAPGKGLEWVSSISPSSGSSIYYADSVKGRFTISRDNSKNTLYLQMNSLRAEDTAVYYCAKAPGWCQAPSCYYDNAMDVWGQGTLVTVSS VL: QSVLTQPPSASGTPGQRVTISCSGSSSNIGNNDVSWYQQLPGTAPKLLIYDDSQRPSGVPDRFSGSKSGTSASLAISGLRSEDEADYYCGAWDDSLSGYVFGGGTKLTVLG | 0.803 | 0.000361 | 450000 | ~0.3 | no binding | ~0.2 | ~0.2 | – | – | – | – | – |
| anti-ROR1 IgG antibody BA6 (antibody, V domains shown, Full IgG form (human IgG1 constant region, lambda light chain), expressed in CHO-S cells) VH: EVQLLESGGGLVQPGGSLRLSCAASGFTFSNYDMSWVRQAPGKGLEWVSAIYHSGSSKYYADSVKGRFTISRDNSKNTLYLQMNSLRAEDTAVYYCARGGNGAWDTGFDYWGQGTLVTVSS VL: QSVLTQPPSASGTPGQRVTISCSGSSSNIGSNDVSWYQQLPGTAPKLLIYYDNNRPSGVPDRFSGSKSGTSASLAISGLRSEDEADYYCGAWDDSLSGYVFGGGTKLTVLG | 0.0937 | 0.000231 | 2.47e+06 | – | no binding | ~0.2 | ~0.1 | ~0.05 | binds | binds | – | – |

More lines, now with the values ahead:

| Kd [1] [nM] | koff [1] [s⁻¹] | kon [1] [M⁻¹ s⁻¹] | EC50 (read off the curve) [2] [nM] | binding result [3] | EC50 (read off the curve) [4] [nM] | EC50 (read off the curve) [5] [µg/mL] | EC50 (read off the curve) [6] [nM] | binding result [2] | binding result [7] | binding result [8] | binding result [9] | Binder |
| --- | --- | --- | --- | --- | --- | --- | --- | --- | --- | --- | --- | --- |
| – | – | – | – | – | – | – | ~0.04 | – | – | binds | binds | anti-ROR1 IgG antibody A2F2 M1 (antibody, V domains shown, Full IgG form (human IgG1 constant region, lambda light chain), expressed in CHO-S cells) VH: EVQLLESGGGLVQPGGSLRLSCAASGFTFSDYYMSWVRQAPGKGLEWVSSISPDASNTYYADSVKGRFTISRDNSKNTLYLQMNSLRAEDTAVYYCAKNLRAFDYWGQGTLVTVSS VL: QSVLTQPPPASGTPGQRVTISCSGSSSNIGSNTVYWYQQLPGTAPKLLIYANSQRPSGVPDRFSGSKSGTSASLAISGLRSEDEADYYCGSWDYSLSGYVFGGGTKLTVLG |
| – | – | – | – | – | – | – | ~0.06 | – | – | binds | binds | anti-ROR1 IgG antibody BA6 M1 (antibody, V domains shown, Full IgG form (human IgG1 constant region, lambda light chain), expressed in CHO-S cells) VH: EVQLLESGGGLVQPGGSLRLSCAASGFTFSNYDMSWVRQAPGKGLEWVSAIYHSGSSKYYADSVKGRFTISRDNSKNTLYLQMNSLRAEDTAVYYCARGGNAAWDTGFDYWGQGTLVTVSS VL: QSVLTQPPSASGTPGQRVTISCSGSSSNIGSNDVSWYQQLPGTAPKLLIYYDNNRPSGVPDRFSGSKSGTSASLAISGLRSEDEADYYCGAWDDSLSGYVFGGGTKLTVLG |
